Reference: patent US20200071404A1

Target: human CD73 expressed on cells (cancer cell line NCI-H1373 endogenously expressing human CD73; human T cell expressing human CD73) (human) (UniProt P21589)
Assay: cell-based or functional assay

Chain of human CD73 expressed on cells (cancer cell line NCI-H1373 endogenously expressing human CD73; human T cell expressing human CD73) (human) (P21589 27-549): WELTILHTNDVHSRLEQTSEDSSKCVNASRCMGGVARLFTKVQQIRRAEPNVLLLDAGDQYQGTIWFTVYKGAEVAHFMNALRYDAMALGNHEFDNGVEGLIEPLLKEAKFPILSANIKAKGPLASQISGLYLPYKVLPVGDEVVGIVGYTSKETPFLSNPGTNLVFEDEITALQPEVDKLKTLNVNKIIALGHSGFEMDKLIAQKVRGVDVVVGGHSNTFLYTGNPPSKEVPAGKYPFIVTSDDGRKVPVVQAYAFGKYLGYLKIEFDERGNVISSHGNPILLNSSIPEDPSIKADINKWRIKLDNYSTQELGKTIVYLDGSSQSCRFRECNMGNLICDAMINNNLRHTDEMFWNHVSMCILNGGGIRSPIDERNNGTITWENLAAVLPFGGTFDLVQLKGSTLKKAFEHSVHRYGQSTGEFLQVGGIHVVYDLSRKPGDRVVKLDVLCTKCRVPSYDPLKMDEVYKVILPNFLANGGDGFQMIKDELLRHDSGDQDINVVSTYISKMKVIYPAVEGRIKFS

B1: 6E1 (antibody, from another filing, V domains shown)
VH: EFQLQQSGPELVKPGASVKVSCKASGYAFTSYNMYWVKQSHGKRLEWIGYIDPYNGGSSYNQKFKGKATLTVDKSSSTAYMHLNNLTSEDSAVYYCARGYNNYKAWFAYWGQGTLVTVSA
VL: SIVMTQTPKFLLVSAGDRVTITCKASQSVTNDVAWYQQKPGQSPKLLIYYASNRYTGVPDRFTGSGYGTDFTFTISTMQAEDLAVYFCQQDYSSLTFGAGTKLELK
Question: With B1 as the binder, how does the EC50 (ng/mL), IFNγ; recovery of AMP-dependently suppressed human T cell functions read?
Answer: 132 ng/mL

Question: What about the EC50 (ng/mL), Proliferation of T cells; recovery of AMP-dependently suppressed human T cell functions of the same binder?
Answer: 357 ng/mL
